How the values were obtained:
hPDE5 mutants [1] = assay: GFP MFI by FACS in HCT116 cells transduced with hPDE5 constructs; format: cell-based, human; conditions: for MFI: 48 hours, HCT 116 cells; for Sildenafil Destabilizing mutation coefficient / Vardenafil Destabilizing mutation coefficient / GFP by FACS, Sildenafil 0 μM (DMSO) / GFP by FACS, Vardenafil 0 μM (DMSO): hotspot constructs; for Sildenafil Destabilizing mutation coefficient: DMSO control of Sildenafil; for Sildenafil Destabilizing mutation coefficient / Vardenafil Destabilizing mutation coefficient: vs OT-001075; for Vardenafil Destabilizing mutation coefficient: DMSO control of Vardenafil; for GFP by FACS, Sildenafil 0 μM (DMSO): HCT116, DMSO control of Sildenafil; for GFP by FACS, Vardenafil 0 μM (DMSO): HCT116, DMSO control of Vardenafil
hPDE5 mutants [2] = biological target: T1, hPDE5 mutants (Homo sapiens, UniProt O76074); assay: as above; format: cell-based; conditions: for Vardenafil Stabilization ratio / Sildenafil Stabilization ratio / GFP by FACS, Sildenafil 10 μM / GFP by FACS, Vardenafil 1 μM: hotspot constructs; for Vardenafil Stabilization ratio: 1 μM Vardenafil; for Sildenafil Stabilization ratio: 10 μM Sildenafil; for GFP by FACS, Sildenafil 10 μM / GFP by FACS, Vardenafil 1 μM: HCT116
hPDE5 mutants [3] = biological target: T1, hPDE5 mutants; assay: Western blot of AcGFP/GFP protein levels in HCT 116 cells expressing hPDE5 mutants; format: cell-based; set-up: GFP protein levels (western blot); fused on or other part: AcGFP reporter through a linker; conditions: vardenafil vs DMSO, HCT 116, R732 mutants
Method: Protein expression analysis of the combination mutants was performed in parallel via western blot. […] GAPDH levels were also analyzed to ensure even protein loading.

[4] = Table 44, Vardenafil 0.01 μM, 48 h, HCT 116
[5] = Table 44, Vardenafil 0.04 μM, 48 h, HCT 116
[6] = Table 44, Vardenafil 3.33 μM, 48 h, HCT 116
[7] = Table 44, Vardenafil 10 μM, 48 h, HCT 116
[8] = Table 44, Vardenafil 30 μM, 48 h, HCT 116
[9] = Table 44, Vardenafil 1000 μM, 48 h, HCT 116
[10] = Table 45, Sildenafil 0.01 μM, 48 h, HCT 116
[11] = Table 45, Sildenafil 0.04 μM, 48 h, HCT 116
[12] = Table 45, Sildenafil 3.33 μM, 48 h, HCT 116
[13] = Table 45, Sildenafil 10 μM, 48 h, HCT 116
[14] = Table 45, Sildenafil 30 μM, 48 h, HCT 116
[15] = Table 45, Sildenafil 1000 μM, 48 h, HCT 116
[16] = Tadalafil 0.01 μM, 48 hours, HCT 116 cells

Substance	MFI (hPDE5 mutants [1]; Tadalafil 11.11 μM)	MFI (hPDE5 mutants [1]; Tadalafil 33.33 μM)	MFI (hPDE5 mutants [1]; Tadalafil 100 μM)	MFI (hPDE5 mutants [1]; Tadalafil 1000 μM)	Sildenafil Destabilizing mutation coefficient (hPDE5 mutants [1])	Vardenafil Destabilizing mutation coefficient (hPDE5 mutants [1])	GFP by FACS, Sildenafil 0 μM (DMSO) (hPDE5 mutants [1])	GFP by FACS, Vardenafil 0 μM (DMSO) (hPDE5 mutants [1])	MFI (hPDE5 mutants [2]; [4])	MFI (hPDE5 mutants [2]; [5])	MFI (hPDE5 mutants [2]; [6])	MFI (hPDE5 mutants [2]; [7])	MFI (hPDE5 mutants [2]; [8])	MFI (hPDE5 mutants [2]; [9])	MFI (hPDE5 mutants [2]; [10])	Vardenafil Stabilization ratio (hPDE5 mutants [2])	Sildenafil Stabilization ratio (hPDE5 mutants [2])	GFP by FACS, Sildenafil 10 μM (hPDE5 mutants [2])	GFP by FACS, Vardenafil 1 μM (hPDE5 mutants [2])	GFP protein levels (western blot) (hPDE5 mutants [3])	also measured
OT-001197: hPDE5 R732T AcGFP construct	12843	17164	21113	21113	0.28	1.46	276	235	2854	6862	41788	48946	67364	67364	856	1.15	1.98	546	270	strong stabilization of GFP levels	MFI (hPDE5 mutants [2]; [11]): 1041; MFI (hPDE5 mutants [2]; [12]): 6896; MFI (hPDE5 mutants [2]; [13]): 12407; MFI (hPDE5 mutants [2]; [14]): 21258; MFI (hPDE5 mutants [2]; [15]): 21258; MFI (hPDE5 mutants [2]; [16]): 825
OT-001198: hPDE5 R732D AcGFP construct	10583	16956	22630	22630	0.3	1.83	298	294	4336	7350	44499	50822	70645	70645	1192	1.44	1.32	394	422	strong stabilization of GFP levels	MFI (hPDE5 mutants [2]; [11]): 1270; MFI (hPDE5 mutants [2]; [12]): 6171; MFI (hPDE5 mutants [2]; [13]): 13971; MFI (hPDE5 mutants [2]; [14]): 21120; MFI (hPDE5 mutants [2]; [15]): 21120; MFI (hPDE5 mutants [2]; [16]): 1163
OT-001199: hPDE5 R732E AcGFP construct	–	–	–	–	0.3	1.71	295	276	–	–	–	–	–	–	–	0.77	1.07	316	212	strong stabilization of GFP levels	–
OT-001200: hPDE5 R732Q AcGFP construct	–	–	–	–	0.36	1.89	353	305	–	–	–	–	–	–	–	0.95	1.57	553	289	strong stabilization of GFP levels	–

— patent US20220403001A1, “PDE5 DERIVED REGULATORY CONSTRUCTS AND METHODS OF USE IN IMMUNOTHERAPY” (Obsidian Therapeutics, Inc., priority 2018, published 2022)
